For the assay, the target named is other channels. The experiment in a line: cell-based or functional assay.

B1: synthetic ShK-235 (peptide)
peptide: RSCIDTIPKSRCTAFKCKHSIKYRLSFCRKTCGTCA
modifications: here or on the partner: 3 disulfide bonds (oxidatively folded synthetic peptide)
Turning to B1, the selectivity for Kv1.3 over other channels (whole-cell patch-clamp) is > 2200 fold.

For the origin of these results see patent publication US20250213627A1, “RECOMBINANT MICROORGANISM-BASED METHODS AND COMPOSITIONS FOR TREATMENT OF DISEASE” (Baylor College of Medicine, priority 2021, published 2025).
